The target in experiment [1] is T1, FcgRIIIa F (human, UniProt P08637 17-208).
T1 construct: extracellular domain; also called FcγRIIIa F; 3aF; not shown: His tag attached to the C terminus
Briefly: SPR (Biacore); KD of H240-Kn061/H240-Hl071/L73-k0 divided by KD of the variant. A general note: SPR reads the build-up and loss of mass on a sensor chip optically.

Experiment [2] addresses T2, FcgRIIIa V (human, UniProt P08637 17-208).
T2 construct: extracellular domain; also called FcγRIIIa V; not shown: His tag attached to the C terminus
The experiment is described as above.

The target in experiment [3] is T3, FcgRIIb (human, UniProt P31994 43-217).
T3 construct: extracellular domain; also called FcγRIIb; not shown: His tag attached to the C terminus
T3 sequence (looked up): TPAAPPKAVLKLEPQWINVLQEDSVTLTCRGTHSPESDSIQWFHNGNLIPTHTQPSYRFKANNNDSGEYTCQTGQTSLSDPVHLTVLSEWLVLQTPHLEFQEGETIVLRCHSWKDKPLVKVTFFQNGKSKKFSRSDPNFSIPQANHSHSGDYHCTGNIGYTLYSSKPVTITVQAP
The experiment is described as above.

Experiment [4] deals with T1, FcgRIIIa F. The description is as above. This is another data set of the same source.
Experiment [5] addresses T2, FcgRIIIa V. The experiment is described as above. This is another data set of the same source.
Experiment [6] addresses T4, FcgRIIa R (human, UniProt P12318 34-217).
T4 construct: extracellular domain; also called FcγRIIa R; FcγRIIa type R; not shown: His tag attached to the C terminus
T4 sequence (looked up): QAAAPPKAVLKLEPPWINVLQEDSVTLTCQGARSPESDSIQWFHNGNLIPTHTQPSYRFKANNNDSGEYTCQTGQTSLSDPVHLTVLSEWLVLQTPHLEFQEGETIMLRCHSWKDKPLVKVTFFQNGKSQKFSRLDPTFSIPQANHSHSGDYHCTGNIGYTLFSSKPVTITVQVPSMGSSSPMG
The experiment is described as above.

Experiment [7] has as its target T3, FcgRIIb. The description is as above. This is another data set of the same source.
In experiment [8] the target is T5, FcgRIIa H (human, UniProt P12318 34-217).
T5 construct: extracellular domain; also called FcγRIIa H; FcγRIIa type H; not shown: His tag attached to the C terminus
T5 sequence (looked up): T4 sequence (looked up) with R134H
The experiment is described as above.

Experiment [9] addresses T6, FcγRIa (human, UniProt P12314 16-292).
T6 construct: extracellular domain; also called FcgRI; 1a; not shown: His tag at the C terminus
As to the kind of experiment: SPR (Biacore); He/Con_1a (FcγRIa) divided by He/Con_2b (FcγRIIb).

The target in experiment [10] is T6, FcγRIa. As to the kind of experiment: SPR (Biacore), antibody captured, FcγR as analyte; binding as % of GpH7-A5/GpH7-B3/GpL16-k0.
Experiment [11] addresses T7, FcγRIIb (human, UniProt P31994 43-217).
T7 construct: extracellular domain; also called FcgRIIb; 2b; not shown: His tag at the C terminus
T7 sequence (looked up): T3 sequence (looked up)
The description is as above.

Positions count from the first letter of the chain named. Names and notes keep the numbering of the source. Like-named read-outs stand apart in the source and are kept apart here.

T2 sequence (P08637 17-208 F176V limits assumed): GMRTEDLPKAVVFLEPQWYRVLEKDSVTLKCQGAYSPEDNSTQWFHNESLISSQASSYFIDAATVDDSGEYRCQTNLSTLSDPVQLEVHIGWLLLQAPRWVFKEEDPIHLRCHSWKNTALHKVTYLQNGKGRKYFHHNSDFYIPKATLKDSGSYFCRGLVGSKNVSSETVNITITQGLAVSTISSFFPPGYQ
T1 sequence (P08637 17-208): as the sequence (P08637 17-208 F176V limits assumed) above, with V160F counted along it
T6 sequence (P12314 16-292): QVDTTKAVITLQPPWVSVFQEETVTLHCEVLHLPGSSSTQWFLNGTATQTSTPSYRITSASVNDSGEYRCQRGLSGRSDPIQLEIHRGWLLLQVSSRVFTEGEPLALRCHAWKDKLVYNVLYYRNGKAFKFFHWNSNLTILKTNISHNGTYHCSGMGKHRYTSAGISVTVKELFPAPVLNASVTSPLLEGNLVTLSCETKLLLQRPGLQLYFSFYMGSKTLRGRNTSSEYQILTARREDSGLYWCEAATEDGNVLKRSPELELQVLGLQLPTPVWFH

B1: H240-Kn061 (Y235Q)/H240-Hl071/L73-k0 (antibody, human IgG1, kappa)
heavy 1: QDQLVQSGAEVKKPGASVKVSCKASGFNIKDTYIQWVRQAPGQGLEWMGRIDPLRKQTKYREKFEGRVTITADTSTNTAYMELSSLRSEDTAVYYCVRSGREFDYWGQGTLVTVSSASTKGPSVFPLAPSSKSTSGGTAALGCLVKDYFPEPVTVSWNSGALTSGVHTFPAVLQSSGLYSLSSVVTVPSSSLGTQTYICNVNHKPSNTKVDKKVEPKSCDKTHTCPPCPAPEYQWGPSVFLFPPKPKDTLMISRTPEVTCVVVDVSDEDPEVKFNWYVDGVEVHNAKTKPREEQYNATYRVVSVLTVLHQDWLNGKEYKCKVSNKALPAPIEKTISKAKGQPREPQVCTLPPSRDELTKNQVSLWCLVKGFYPSDIAVEWESNGQPENNYKTTPPVLDSDGSFFLYSKLTVDKSRWQQGNVFSCSVMHEALHNHYTQKSLSLSP
heavy 2: QDQLVQSGAEVKKPGASVKVSCKASGFNIKDTYIQWVRQAPGQGLEWMGRIDPLRKQTKYREKFEGRVTITADTSTNTAYMELSSLRSEDTAVYYCVRSGREFDYWGQGTLVTVSSASTKGPSVFPLAPSSKSTSGGTAALGCLVKDYFPEPVTVSWNSGALTSGVHTFPAVLQSSGLYSLSSVVTVPSSSLGTQTYICNVNHKPSNTKVDKKVEPKSCDKTHTCPPCPAPELLGGPSVFLFPPKPKDTLMISRTPEVTCVVVDVSHEDPEVKFNWYVDGVEVHNAKTKPREEQYNSTYRVVSVLTVLHQDWLNGKEYKCKVSNDALPMPIEETISKAKGQPREPQVYTLPPSRCELTKNQVSLSCAVKGFYPSDIAVEWESNGQPENNYKTTPPVLDSDGSFFLVSKLTVDKSRWQQGNVFSCSVMHEALHNHYTQKSLSLSP
light: DIQMTQSPSSLSASVGDRVTITCRASQDIHKYIAWYQQKPGQAPRLLIQYTSTLQPGVPSRFSGSGSGTDYTFTISSLQPEDIATYYCLQYEQLRTFGGGTKVEIKRTVAAPSVFIFPPSDEQLKSGTASVVCLLNNFYPREAKVQWKVDNALQSGNSQESVTEQDSKDSTYSLSSTLTLSKADYEKHKVYACEVTHQGLSSPVTKSFNRGEC
With B1, the “Relative KD” value stood at 1 in experiment [1]; 1.3 in experiment [2]; 0.1 in experiment [3]; 1 in experiment [4]; 1.3 in experiment [5]; 0.8 in experiment [6]. Moreover, the “Relative KD” value in [7] amounted to 0.1; in experiment [8] it was 0.4.

B2: H240-Kn061 (Y235V)/H240-Hl071/L73-k0 (antibody, human IgG1, kappa)
heavy 1: B1 heavy 1 with Q234V
heavy 2: B1 heavy 2
light: B1 light
For the molecule B2, the “Relative KD” value in [1] was 1.2; in experiment [2] it was 1.3; in experiment [3] it was 0.2; in experiment [4], 1.2; in experiment [5], 1.3; in experiment [6], 0.5. Moreover, the “Relative KD” value stood at 0.2 in experiment [7] and 0.4 in [8].

B3: GpH7-A5/GpH7-B3 variant K326_02A/GpL16-k0 (antibody, human IgG1, kappa)
heavy 1: not shown
heavy 2: not shown
light: DIVMTQSPLSLPVTPGEPASISCQASESLVHSNRNTYLHWYLQKPGQSPQLLIYKVSNRFSGVPDRFSGSGSGTDFTLKISRVEAEDVGVYYCSQNTHVPPTFGQGTKVEIERTVAAPSVFIFPPSDEQLKSGTASVVCLLNNFYPREAKVQWKVDNALQSGNSQESVTEQDSKDSTYSLSSTLTLSKADYEKHKVYACEVTHQGLSSPVTKSFNRGEC
notes: heterodimerized IgG1; alteration in the GpH7-B3 H chain only; also called He Ab
Take B3: the “Ia/IIb He_1a/2b” value in experiment [9] stood at 0.73 ratio. Also, the He/Con_1a in experiment [10] is 102 % of control. In addition, the He/Con_2b in experiment [11] is 139 % of control.

B4: GpH7-A5/GpH7-B3 variant H268_18N/GpL16-k0 (antibody, human IgG1, kappa)
heavy 1: not shown
heavy 2: not shown
light: B3 light
notes: as for B3
B4: in experiment [9], the “Ia/IIb He_1a/2b” value was 0.69 ratio. Besides, the He/Con_1a in experiment [10] was 108 % of control. Moreover, the He/Con_2b in experiment [11] was 156 % of control.

B5: GpH7-A5/GpH7-B3 variant P271_01G/GpL16-k0 (antibody, human IgG1, kappa)
heavy 1: not shown
heavy 2: not shown
light: B3 light
notes: as for B3
Regarding B5, the “Ia/IIb He_1a/2b” value in [9] was 0.54 ratio. Moreover, in [10], the He/Con_1a is 105 % of control. Also, the He/Con_2b in experiment [11] is 193 % of control.

B6: GpH7-A5/GpH7-B3 variant H268_13S/GpL16-k0 (antibody, human IgG1, kappa)
heavy 1: not shown
heavy 2: not shown
light: B3 light
notes: as for B3
B6: the “Ia/IIb He_1a/2b” value in experiment [9] was 0.68 ratio. Also, in experiment [10], the He/Con_1a is 109 % of control. In experiment [11], the He/Con_2b was 160 % of control.

B7: GpH7-A5/GpH7-B3 variant K326_19Q/GpL16-k0 (antibody, human IgG1, kappa)
heavy 1: not shown
heavy 2: not shown
light: B3 light
notes: as for B3
Turning to B7, the “Ia/IIb He_1a/2b” value in [9] worked out at 0.73 ratio. For the same molecule, in experiment [10], the He/Con_1a is 102 % of control. Besides, the He/Con_2b in [11] is 139 % of control.

B8: GpH7-A5/GpH7-B3 variant K326_15Y/GpL16-k0 (antibody, human IgG1, kappa)
heavy 1: not shown
heavy 2: not shown
light: B3 light
notes: as for B3
As for B8, the “Ia/IIb He_1a/2b” value in experiment [9] stood at 0.66 ratio. Besides, the He/Con_1a in experiment [10] is 106 % of control. Moreover, the He/Con_2b in experiment [11] was 159 % of control.

B9: GpH7-A5/GpH7-B3 variant K326_09D/GpL16-k0 (antibody, human IgG1, kappa)
heavy 1: not shown
heavy 2: not shown
light: B3 light
notes: as for B3
For B9, the “Ia/IIb He_1a/2b” value in [9] stood at 0.54 ratio. Besides, the He/Con_1a in experiment [10] is 103 % of control. Also, the He/Con_2b in experiment [11] is 193 % of control.

B10: GpH7-A5/GpH7-B3 variant K326_06M/GpL16-k0 (antibody, human IgG1, kappa)
heavy 1: not shown
heavy 2: not shown
light: B3 light
notes: as for B3
Turning to B10, the “Ia/IIb He_1a/2b” value in [9] was 0.62 ratio. The He/Con_1a in experiment [10] was 102 % of control. In addition, the He/Con_2b in experiment [11] is 165 % of control.

B11: GpH7-A5/GpH7-B3 variant K326_20W/GpL16-k0 (antibody, human IgG1, kappa)
heavy 1: not shown
heavy 2: not shown
light: B3 light
notes: as for B3
B11: the “Ia/IIb He_1a/2b” value in experiment [9] is 0.69 ratio. For the same molecule, the He/Con_1a in experiment [10] was 103 % of control. Further, the He/Con_2b in experiment [11] is 148 % of control.

B12: GpH7-A5/GpH7-B3 variant K326_08L/GpL16-k0 (antibody, human IgG1, kappa)
heavy 1: not shown
heavy 2: not shown
light: B3 light
notes: as for B3
On to B12, for which the “Ia/IIb He_1a/2b” value in experiment [9] stood at 0.57 ratio. Further, the He/Con_1a in [10] was 100 % of control. For the same molecule, the He/Con_2b in experiment [11] was 177 % of control.

B13: GpH7-A5/GpH7-B3 variant K326_14T/GpL16-k0 (antibody, human IgG1, kappa)
heavy 1: not shown
heavy 2: not shown
light: B3 light
notes: as for B3
As for B13, the “Ia/IIb He_1a/2b” value in [9] was 0.7 ratio. In experiment [10], the He/Con_1a was 104 % of control. In addition, the He/Con_2b in experiment [11] is 150 % of control.

B14: GpH7-A5/GpH7-B3 variant K326_10E/GpL16-k0 (antibody, human IgG1, kappa)
heavy 1: not shown
heavy 2: not shown
light: B3 light
notes: as for B3
With B14, the “Ia/IIb He_1a/2b” value in experiment [9] turned out to be 0.52 ratio. Further, the He/Con_1a in experiment [10] was 104 % of control. In addition, the He/Con_2b in experiment [11] was 200 % of control.

B15: GpH7-A5/GpH7-B3 variant K326_04F/GpL16-k0 (antibody, human IgG1, kappa)
heavy 1: not shown
heavy 2: not shown
light: B3 light
notes: as for B3
B15: the “Ia/IIb He_1a/2b” value in experiment [9] turned out to be 0.66 ratio. Moreover, the He/Con_1a in [10] was 102 % of control. For the same molecule, the He/Con_2b in experiment [11] was 155 % of control.

B16: GpH7-A5/GpH7-B3 variant K326_03V/GpL16-k0 (antibody, human IgG1, kappa)
heavy 1: not shown
heavy 2: not shown
light: B3 light
notes: as for B3
As for B16, in experiment [9], the “Ia/IIb He_1a/2b” value came to 0.58 ratio. The He/Con_1a in experiment [10] is 102 % of control. For the same molecule, the He/Con_2b in experiment [11] is 175 % of control.

B17: GpH7-A5/GpH7-B3 variant H268_10E/GpL16-k0 (antibody, human IgG1, kappa)
heavy 1: not shown
heavy 2: not shown
light: B3 light
notes: as for B3
As to B17, the “Ia/IIb He_1a/2b” value in experiment [9] came out at 0.48 ratio. Further, the He/Con_1a in [10] is 111 % of control. Besides, the He/Con_2b in experiment [11] was 230 % of control.

B18: GpH7-A5/GpH7-B3 variant K326_07I/GpL16-k0 (antibody, human IgG1, kappa)
heavy 1: not shown
heavy 2: not shown
light: B3 light
notes: as for B3
Consider B18, for which, in [9], the “Ia/IIb He_1a/2b” value amounted to 0.51 ratio. Moreover, in [10], the He/Con_1a is 101 % of control. Moreover, the He/Con_2b in experiment [11] was 199 % of control.

For the origin of these results see patent publication US20180155451A1 (published 2018).
